Source: patent US20210380664A1 (AICURIS ANTI INFECTIVE CURES, published 2021)

Target: HCMV virus particles, strain TB40/E
Assay: cell-based or functional assay

GRHIYIYVPDPDVAFVPLGMTDYLVIVEDDDSAIIPCRTT [PDGFR-alpha derived 40mer peptide GT40]
EC50 of inhibition of infection of HFFs by peptide: 2000 nM
